This is an account of results in publication PMC5503940.

In test [1] the target is αβ-tubulin heterodimer.
For test [2], the target named is αβ-tubulin heterodimer. Description: SEC-MALS; KW803 (Shodex) column, 20 mM Pipes pH 6.8, 10 μM AMPPNP; 30 μl at about 3 mg/ml tubulin–Kif2C–DARPin complexes, 0.5 ml/min. A general note: Size exclusion chromatography separates by hydrodynamic size, large species first.
Test [3] concerns the target αβ-tubulin heterodimer. This is another data set of the same source.

With “Kif2C-(sN+M) (short neck+motor construct of human Kif2C/MCAK) (from UniProt Q99661 216-598) (domain or fragment)”, the microtubule-stimulated ATPase, K mMT; tubulin as Taxotere-stabilized microtubules in test [1] was 1.1 µM.

In test [1], “Kif2C-(sN+M) R420S (from UniProt Q99661 216-598) (domain or fragment)” registered a microtubule depolymerase activity (turbidity, percent of wild-type Kif2C-(sN+M)) of 5.7% and a microtubule-stimulated ATPase, k cat; tubulin as Taxotere-stabilized microtubules of 0.33 s⁻¹.

The substance “Kif2C-(sN+M) R510A (from UniProt Q99661 216-598) (domain or fragment)” came in with a microtubule-stimulated ATPase, K mMT; tubulin as Taxotere-stabilized microtubules in test [1] of 17 µM.

“Kif2C-(sN+M) R540A (from UniProt Q99661 216-598) (domain or fragment)” returned a microtubule depolymerase activity (turbidity, percent of wild-type Kif2C-(sN+M)) in test [1] of 5.5%.

“Kif2C-(sN+M)-(G4S)3-DARPin (Kif2C-(sN+M) linked to the D1 DARPin by a (G4S)3 peptide) (from UniProt Q99661 216-598)”: the stoichiometry N (tubulin:construct) in test [2] was 1.

As for “Kif2C-(sN+M)-(G4S)4-GGS-DARPin (Kif2C-(sN+M) fused to the A-C2 DARPin) (from UniProt Q99661 216-598)”, in test [3], the microtubule-stimulated ATPase, apparent K m (K mMT); tubulin as Taxotere-stabilized microtubules came to 20 µM; the tubulin-stimulated ATPase, apparent Michaelis–Menten constant is 0.5 µM; the tubulin-stimulated ATPase, k cat worked out at 0.1 s⁻¹.
